Reference: the Immune Epitope Database (IEDB)

Columns and labels:
HLA-A*24:03 = assay: IEDB peptide-MHC binding, purified MHC/direct/fluorescence; filed as Kd, often an IC50 or EC50 that approximates it; ≥ and ≤ were set here for values at or beyond the usual limits of such assays; conditions: source organism: Zaire ebolavirus
HLA-A*02:01 = assay: as above; conditions: source organism: Sudan ebolavirus - Maleo (1979)
HLA-B*15:01 = assay: IEDB peptide-MHC binding, purified MHC/competitive/fluorescence; filed as Kd, often an IC50 or EC50 that approximates it; ≥ and ≤ were set here for values at or beyond the usual limits of such assays; conditions: source organism: Zaire ebolavirus
HLA-A*26:01 = assay: as above; conditions: source organism: Zaire ebolavirus
HLA-B*15:17 = assay: as above; conditions: source organism: Zaire ebolavirus
HLA-B*45:06 = assay: as above; conditions: source organism: Zaire ebolavirus
HLA-A*03:19 = assay: as above; conditions: source organism: Zaire ebolavirus
HLA-B*39:01 = assay: as above; conditions: source organism: Zaire ebolavirus
HLA-C*06:02 = assay: as above; conditions: source organism: Zaire ebolavirus
HLA-B*57:01 = assay: as above; conditions: source organism: Zaire ebolavirus
HLA-B*83:01 = assay: as above; conditions: source organism: Zaire ebolavirus
HLA-B*27:03 = assay: as above; conditions: source organism: Zaire ebolavirus
HLA-B*46:01 = assay: as above; conditions: source organism: Zaire ebolavirus
HLA-B*15:42 = assay: as above; conditions: source organism: Zaire ebolavirus
HLA-B*18:01 = assay: as above; conditions: source organism: Zaire ebolavirus

Sequence: VLYHRYNLV
- Kd (HLA-A*24:03): ≥ 20 µM
- Kd (HLA-A*02:01): 0.0181 µM
- Kd (HLA-B*15:01): ≥ 20 µM
- Kd (HLA-A*26:01): ≥ 20 µM
- Kd (HLA-B*15:17): ≥ 20 µM
- Kd (HLA-B*45:06): ≥ 5 µM
- Kd (HLA-A*03:19): 0.0044 µM
- Kd (HLA-B*39:01): ≥ 20 µM
- Kd (HLA-C*06:02): 0.804 µM
- Kd (HLA-B*57:01): ≥ 20 µM
- Kd (HLA-B*83:01): ≥ 5 µM
- Kd (HLA-B*27:03): ≥ 20 µM
- Kd (HLA-B*46:01): ≥ 20 µM
- Kd (HLA-B*15:42): ≥ 5 µM
- Kd (HLA-B*18:01): ≥ 20 µM
